pKd: −log10 of the molar value.

Experiment [1] has as its target CLDN18.2~VLP (virus-like particle) expressing the claudin18.2 protein, CSB-MP005498HU (A5), CUSABIO (UniProt P56856). Kind of experiment: indirect ELISA (OD 450 nm) on coated CLDN18.2 VLP, regression in GraphPad Prism. (In general: In an ELISA, binding on a coated surface is turned into a signal by an enzyme label.)
The target of experiment [2] is claudin18.2 protein (CLDN18.2) on CLDN18.2-positive cancer cell lines (MIA PaCa-2~CLDN18.2, SNU601, PATU8988S, NUGC-4) (UniProt P56856). Kind of experiment: cell-based ELISA (OD 450 nm), PATU8988S (CLDN18.2+) cells.
Experiment [3] shares this target. As to the kind of experiment: cell-based or functional assay.
Experiment [4] has the same target. Kind of experiment: cell-based ELISA, PATU8988S (CLDN18.2+) cells; given as Kd, text calls it EC50.
For experiment [5] the target is unchanged. Kind of experiment: cell-based ELISA (OD 450 nm), MIA PaCa-2 (CLDN18.2+) cells.
Experiment [6] has the same target. Kind of experiment: cell-based ELISA (OD 450 nm), SNU601 (CLDN18.2+) cells. Also noted: unit not given here.
Experiment [7] shares this target. As to the kind of experiment: cell-based ELISA, MIA PaCa-2 (CLDN18.2+) cells; given as Kd, text calls it EC50.
A further experiment concerns SNU601 cell line. Kind of experiment: Cell-based ELISA binding to SNU601 cells. The following applies: SNU601 (CLDN18.2+). The procedure:
(§1) OD value measurement through ELISA was performed by measuring the absorbance at 450 nm using a UV-Vis spectrometer.
(§2) Four types of cell lines (MIA PaCa-2˜CLDN18.2, PATU8988S, parental MIA PaCa-2 (CLDN18.2-), and SNU601) were prepared. At this time, MIA PaCa-2˜CLDN18.2 and PATU8988S are CLDN18.2-positive pancreatic cancer cell lines. MIA PaCa-2 (CLDN18.2-) is a CLDN18.2-negative pancreatic cancer cell line. SNU601 is a CLDN18.2-positive gastric cancer cell line.
(§3) The prepared cell lines were cultured in DMEM containing 10% FBS and 1% penicillin/streptomycin (MIA PaCa-2˜CLDN18.2, MIA PaCa-2 (CLDN18.2-)), RPMI1640 containing 10% FBS and 1% penicillin/streptomycin (SNU601), and DMEM containing 5% FBS, 5% serum, 1% penicillin/streptomycin, and 2 mM L-glutamine (PATU8988S) in an incubator under the conditions of 37° C. and 5% CO2.
(§4) The prepared cell lines were plated on 96-well plates for culture, and then treated with each of antibody-A, ADC-A, antibody-B, and ADC-B. Thereafter, cell-based ELISA was performed, and OD values were measured.
(§5) The measured results were used for a regression analysis in GraphPad PRISM® 9.0 software to calculate EC50 and Bmax. The cell binding affinity of antibody-A, ADC-A, antibody-B, and ADC-B to each cell line was evaluated based on the calculated values.

The test system of experiment [8] is MIA PaCa-2 (CLDN18.2-) cell line. Kind of experiment: Cell-based ELISA binding to MIA PaCa-2 (CLDN18.2-) cells. The following applies: CLDN18.2 negative cell line. The method, then: as §1, §2, §3, §4, §5
Experiment [9] deals with T1, claudin18.2 protein (CLDN18.2) (Homo sapiens, UniProt P56856).
T1 construct: purchased CUSABIO TECHNOLOGY LLC CSB-MP005498HU (A5)
As to the kind of experiment: Indirect ELISA binding to CLDN18.2 VLP. The following applies: CLDN18.2 (antigen protein) VLP, OD at 450 nm. The method, then:
as §1
To confirm the binding strength to an antigen, a CLDN18.2˜VLP (virus-like particle) expressing the claudin18.2 protein (CLDN18.2) was prepared. At this time, CLDN18.2˜VLP is CSB-MP005498HU (A5) from CUSABIO TECHNOLOGY LLC.
After a 96-well plate was coated with the CLDN18.2 VLP for ELISA and treated with each of antibody-A and ADC-A, indirect ELISA was performed to measure OD values.
The measured results were used for a regression analysis in GraphPad PRISM® 9.0 software to calculate EC50 and Bmax. The antigen binding affinity of antibody-A, ADC-A, antibody-B, and ADC-B were evaluated based on the calculated values.

In the next experiment the test system is PATU8988S cell line. As to the kind of experiment: Cell-based ELISA binding to PATU8988S cells. The following applies: PATU8988S (CLDN18.2+). The procedure: as §1, §2, §3, §4, §5
Experiment [10] concerns MIA PaCa-2˜CLDN18.2 cell line. As to the kind of experiment: Cell-based ELISA binding to MIA PaCa-2˜CLDN18.2 cells. The method, then: as §1, §2, §3, §4, §5

Chain of ADC-B (antibody-B conjugated with MMAE) (VH): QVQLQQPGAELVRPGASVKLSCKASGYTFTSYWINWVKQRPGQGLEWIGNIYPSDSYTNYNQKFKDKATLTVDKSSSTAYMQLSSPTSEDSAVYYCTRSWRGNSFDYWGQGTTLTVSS
Chain of ADC-B (antibody-B conjugated with MMAE) (VL): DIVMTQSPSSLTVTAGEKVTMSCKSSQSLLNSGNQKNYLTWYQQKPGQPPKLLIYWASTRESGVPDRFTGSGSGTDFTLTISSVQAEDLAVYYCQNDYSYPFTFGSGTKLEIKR
Chain of Antibody-B (zolbetuximab antibody) (VH): as the sequence (VH) above
Chain of Antibody-B (zolbetuximab antibody) (VL): as the sequence (VL) above

In [1], ADC-B (antibody-B conjugated with MMAE) had a Bmax of 2.87. This substance also had a Bmax in experiment [2] of 2.33. Also, in experiment [3], the IC50 (nM), cell viability (CellTiter-Glo), MIA PaCa-2 (CLDN18.2+) was determined as 2.12 nM; the IC50 (nM), cell viability (CellTiter-Glo), NUGC4 (CLDN18.2+) was 20 nM; the IC50 (nM), cell viability (CellTiter-Glo), PATU8988S (CLDN18.2+) came out at 7.19 nM; the IC50 (nM), cell viability (CellTiter-Glo), SNU601 (CLDN18.2+) worked out at 10.4 nM. In [4], the pKd is 7.98. This substance also gave a Bmax in [5] of 3.33. This substance returned a Bmax in experiment [6] of 2.8. In experiment [7], this substance showed a Kd of 0.065 µg/mL.
Consider Antibody-B (zolbetuximab antibody), for which the Bmax in experiment [1] was determined as 2.13; in experiment [2] it was 1.21; in [5], 3.05; in [6], 1.7. This substance also gave a pKd in experiment [4] of 7.90.
“zolbetuximab [Antibody-B, reference compound]”: the Bmax was found to be 1.701 with SNU601 cell line, 2.134 in experiment [9], 1.214 with PATU8988S cell line and 3.053 in experiment [10]. For the same substance, the “binding to parental MIA PaCa-2” value in [8] was “none of the test substances bound”.

A word on the pKd: it is the negative decadic logarithm of the Kd, by convention in mol/L. For orientation: Kd means the equilibrium constant for the complex coming apart.

(Values after patent US20260151501A1, “ANTIBODY-DRUG CONJUGATE COMPRISING ANTI-CLAUDIN-18.2 ANTIBODY, AND THERAPEUTIC USE THEREOF FOR CANCER” (ABTIS CO., LTD., priority 2022, published 2026).)
